The text below walks through data of US20250361288A1 (Gilead, published 2025).

T1: mouse HVEM extracellular domain fused with an Fc fragment at the C-terminus (mouse, UniProt Q80WM9 39-206, limits assumed)
T1 construct: extracellular domain; Bought; also called mHVEM; not shown: Fc fragment at the C-terminus
T1 sequence (looked up): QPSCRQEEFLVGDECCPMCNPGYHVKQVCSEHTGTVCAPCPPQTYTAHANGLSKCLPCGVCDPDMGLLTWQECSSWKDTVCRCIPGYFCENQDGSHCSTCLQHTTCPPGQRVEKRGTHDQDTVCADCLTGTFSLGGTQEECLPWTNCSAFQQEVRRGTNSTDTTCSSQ

T2: human HVEM extracellular domain fused with an Fc fragment at the C-terminus (human, UniProt Q92956 39-202)
T2 construct: extracellular domain; Bought; also called hHVEM; not shown: Fc fragment at the C-terminus
T2 sequence (looked up): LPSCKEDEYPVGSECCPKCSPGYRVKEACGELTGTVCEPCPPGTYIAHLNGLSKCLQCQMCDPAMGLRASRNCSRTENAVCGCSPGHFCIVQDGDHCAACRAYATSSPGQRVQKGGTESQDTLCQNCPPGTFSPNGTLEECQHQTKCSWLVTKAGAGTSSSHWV

B1: LIGHT-41 (ligand)
chain: DGPAGSWEQLIQERRSHEVNPAAHLTGANSSLTGSGGPLLWETQLGLAFLRGLSYHDGALVVTKAGYYYIYSKVQLRGVGCPLGLAGTITHGLYKRTPRYPEELELLVSQQSPCGRATSSSRVWWDSSFLGGVVHLEAGEKVVVRVSDERLVRLRDGTRSYFGAFMV
notes: Printed mutations: G150R, S160G, L220S; Soluble protein carries an N-terminal His tag
B2: LIGHT-45 (ligand)
chain: B1 chain with R77S, G87P, T88S, R150H
notes: Printed mutations: G150S, S160P, T161S, L220S, R223H; Soluble protein carries an N-terminal His tag
B3: LIGHT-9 (ligand)
chain: B1 chain with R77S, G87S, T88G
notes: Printed mutations: G150S, T161G, L220S; Soluble protein carries an N-terminal His tag
B4: LIGHT-11 (ligand)
chain: B1 chain with R77S, G87S
notes: Printed mutations: G150S, L220S; Soluble protein carries an N-terminal His tag
B5: LIGHT-4 (ligand)
chain: B1 chain with R77G, V79M, G87S, T88P, S147L, R155L
notes: Printed mutations: V152M, T161P, R228L; Soluble protein carries an N-terminal His tag
B6: LIGHT-13 (ligand)
chain: B1 chain with S31P, R77G, G84S, G87S, H135Y, S147R
notes: Printed mutations: S104P, G157S, H208Y, L220R; Soluble protein carries an N-terminal His tag
B7: LIGHT-44 (ligand)
chain: B1 chain with L85P, G87S
notes: Printed mutations: G150R, L158P, L220S; Soluble protein carries an N-terminal His tag
B8: LIGHT-38 (ligand)
chain: B1 chain with R77G, G87S, Q111R, W125Q, S147L
notes: Printed mutations: Q184R, W198Q; Soluble protein carries an N-terminal His tag
B9: LIGHT-49 (ligand)
chain: B1 chain with L32P, Q44R, R77G, G87S, S147Q
notes: Printed mutations: L105P, Q117R, L220Q; Soluble protein carries an N-terminal His tag
B10: LIGHT-43 (ligand)
chain: B1 chain with G87T
notes: Printed mutations: G150R, S160T, L220S; Soluble protein carries an N-terminal His tag
B11: LIGHT-50 (ligand)
chain: B1 chain with N29R, L47Q, R77G, G87S, H135R, K141E, S147L
notes: Printed mutations: N102R, L120Q, H208R, K214E; Soluble protein carries an N-terminal His tag
B12: LIGHT-8 (ligand)
chain: B1 chain with R77S
notes: Printed mutations: G150S, S160G, L220S; Soluble protein carries an N-terminal His tag
B13: LIGHT-6 (ligand)
chain: B1 chain with R77G, G87S, W125Q, S147N, D148G
notes: Printed mutations: W198Q, L220N, D221G; Soluble protein carries an N-terminal His tag
B14: LIGHT-51 (ligand)
chain: B1 chain with A28D, R77G, G87N
notes: Printed mutations: A101D, S160N, L220S; Soluble protein carries an N-terminal His tag
B15: LIGHT-81 (ligand)
chain: B1 chain with Q44N, R77G, T88P, E149S, L154T
notes: Printed mutations: Q117N, S160G, T161P, L220S, E222S, L227T; Soluble protein carries an N-terminal His tag
B16: LIGHT-79 (ligand)
chain: B1 chain with Q44E, R77G, T88S, L154T
notes: Printed mutations: Q117E, S160G, T161S, L220S, L227T; Soluble protein carries an N-terminal His tag
B17: LIGHT-80 (ligand)
chain: B1 chain with Q44N, R77G, T88G, E149S, L154T
notes: Printed mutations: Q117N, S160G, T161G, L220S, E222S, L227T; Soluble protein carries an N-terminal His tag
B18: LIGHT-83 (ligand)
chain: B1 chain with Q44E, R77G, T88P, E149S, L154T
notes: Printed mutations: Q117E, S160G, T161P, L220S, E222S, L227T; Soluble protein carries an N-terminal His tag
B19: LIGHT-85 (ligand)
chain: B1 chain with Q44E, R77G, T88S, E149S, L154T
notes: Printed mutations: Q117E, S160G, T161S, L220S, E222S, L227T; Soluble protein carries an N-terminal His tag
B20: LIGHT-77 (ligand)
chain: B1 chain with Q44E, R77G, T88P, L154T
notes: Printed mutations: Q117E, S160G, T161P, L220S, L227T; Soluble protein carries an N-terminal His tag
B21: LIGHT-78 (ligand)
chain: B1 chain with Q44N, R77G, T88S, L154T
notes: Printed mutations: Q117N, S160G, T161S, L220S, L227T; Soluble protein carries an N-terminal His tag
B22: LIGHT-74 (ligand)
chain: B1 chain with Q44N, R77G, T88G, L154T
notes: Printed mutations: Q117N, S160G, T161G, L220S, L227T; Soluble protein carries an N-terminal His tag
B23: LIGHT-82 (ligand)
chain: B1 chain with Q44E, R77G, T88G, E149S, L154T
notes: Printed mutations: Q117E, S160G, T161G, L220S, E222S, L227T; Soluble protein carries an N-terminal His tag
B24: LIGHT-75 (ligand)
chain: B1 chain with Q44N, R77G, T88P, L154T
notes: Printed mutations: Q117N, S160G, T161P, L220S, L227T; Soluble protein carries an N-terminal His tag

Where a chain is given by its changes, count along the chain named. Names may count otherwise.

In the first experiment the target is T3, mouse LTβR extracellular domain fused with an Fc fragment at the C-terminus (mouse, UniProt P50284 31-223).
T3 construct: extracellular domain; Bought; also called mLTβR; not shown: Fc fragment at the C-terminus
T3 sequence (P50284 31-223): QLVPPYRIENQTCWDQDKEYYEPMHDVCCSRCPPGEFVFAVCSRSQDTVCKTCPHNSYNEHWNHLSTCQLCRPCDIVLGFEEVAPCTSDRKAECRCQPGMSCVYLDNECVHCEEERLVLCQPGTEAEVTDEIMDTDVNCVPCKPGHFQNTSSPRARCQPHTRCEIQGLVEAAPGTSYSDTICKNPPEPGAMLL
As to the kind of experiment: ELISA on coated target-Fc. The method, then: (§1) Nunc MaxiSorp 96-well plates (Thermofisher) were coated with target proteins (1 μg/ml), and then blocked with 2% BSA-PBS buffer for one hour. Serial dilutions of the LIGHT muteins were added with a maximum concentration of 200 ng/ml. The plates were incubated for one hour, washed four times with PBST, and then incubated with mouse anti-His tag antibody (#105327, Sino Biological) for 1 hour. The plates were further incubated with HRP-conjugated goat anti-mouse secondary antibody (#SSA006, Sino Biological) before being washed three times with PBST and treated with TMB substrate (#34029, ThermoFisher). The plates were read at 450 nm on a SpectraMax M5 microplate reader (Molecule Devices). The ELISA results were analyzed using GraphPad Prism 9.0 software and the EC50s (half maximal effective concentration) were summarized in Table 5-1 and Table 5-2.
Turning to B1, a half-maximal response (EC50) required 0.0311 µg/mL.
Same read-out and setting: then B2, with 0.0264 µg/mL; and B3, with 0.0224 µg/mL.
On the same count and under the same terms, then B4, with 0.0233 µg/mL.

In another experiment the target is T4, human LTβR extracellular domain fused with an Fc fragment at the C-terminus (human, UniProt P36941 31-227).
T4 construct: extracellular domain; Bought; also called hLTβR; not shown: Fc fragment at the C-terminus
T4 sequence (P36941 31-227): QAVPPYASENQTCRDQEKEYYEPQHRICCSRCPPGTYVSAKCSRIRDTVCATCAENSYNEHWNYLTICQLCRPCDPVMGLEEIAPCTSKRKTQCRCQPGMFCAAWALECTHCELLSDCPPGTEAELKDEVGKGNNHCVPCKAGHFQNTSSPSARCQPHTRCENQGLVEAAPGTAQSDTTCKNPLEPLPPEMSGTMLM
Briefly: ELISA on coated target-Fc. As for the experimental part: as §1
A general note: An ELISA detects its analyte on a solid surface through an enzyme-linked reagent.
In turn, B1 had an EC50 of 0.108 µg/mL.
Consider B2, for which the EC50 came to 0.0362 µg/mL. Compared with the last molecule, the EC50 is about 3-fold lower.
For the molecule B3, the EC50 stood at 0.0282 µg/mL. This EC50 and that of the molecule before are within 1.5-fold of each other.
The same measure, in the same setting: the figure for B4 is 0.0395 µg/mL.

Another experiment concerns the target T1, mouse HVEM extracellular domain fused …. Briefly: phage ELISA. As for the experimental part:
(§2) Individual clones from the fourth selection round were grown in 96-well deep well blocks in 100 μl of 2YT broth supplemented with 50 μg/ml ampicillin at 37° C. and 220 rpm for 5 hours. Then, 5 μl of helper phages were added to each well and incubated at 37° C. for 30 minutes. After centrifuging at 3,000 rpm for 10 minutes, the cells were resuspended and grown overnight in 150 μl/well of 2YT broth supplemented with 50 μg/ml ampicillin and 50 μg/ml kanamycin.
(§3) For the ELISA screening, 96-well ELISA plates were coated with target proteins (1 μg/ml in PBS) at 4° C. overnight and then blocked with 2% BSA for 2 hours at room temperature. The supernatant containing phage particles was added to the plates and incubated at room temperature for 1 hour. After incubation, the plates were washed five times with PBST. HRP (horseradish peroxidase) conjugated anti-M13 antibody (Sino Biological, China) was added to the wells and incubated at room temperature for 1 hour. Following another round of washing five times with PBST, 50 μl of TMB (3,3′, 5,5″-tetramethylbenzidine, #34029, ThemoFisher) was added to each well. After 5 minutes, the reaction was stopped by adding 50 μl stop solution (#C1058, Solarbio, China). The absorbance at 450 nm (OD450) was measured using a plate reader (SpectraMax M5, Molecule Devices). Wells coated with BSA were used as negative controls. Phage clones with an ELISA score ratio (target/BSA)>3 were considered positive clones.
Take B5: the binding result is reported as “binds”.
Consider B6, for which the binding result was “binds”.
For B1, the binding result was “binds”.
Turning to B7, the binding result is on record as “binds”.
Consider B8, for which the binding result is listed as “binds”.
On to B2, for which the binding result is on record as “binds”.
The same measure, in the same setting: the entry for B3 is “binds”; for B9 it is “binds”; for B4 it is “binds”.
Same read-out and setting: the entry for B10 is “binds”; for B11 it is “binds”.
Take B12: the binding result was “binds”.
On the same count and under the same terms, the entry for B13 is “binds”.
Take B14: the binding result was “binds”.

The next experiment deals with T3, mouse LTβR extracellular domain fused …. Briefly: phage ELISA. The method, then: as §2, §3
B5: the binding result is reported as “binds”.
Same read-out and setting: the entry for B15 is “binds”; for B16 it is “binds”.
Same read-out and setting: then B17, with “binds”; and B6, with “binds”.
Same read-out and setting: then B18, with “binds”; and B19, with “binds”.
For the molecule B20, the binding result was “binds”.
Turning to B21, the binding result is “binds”.
Turning to B7, the binding result is recorded as “binds”.
For the molecule B8, the binding result is listed as “binds”.
Same read-out and setting: then B22, with “binds”.
For B23, the binding result is recorded as “binds”.
On the same count and under the same terms, the entry for B9 is “binds”; for B10 it is “binds”; for B24 it is “binds”.
Regarding B11, the binding result is given as “binds”.
As for B12, the binding result is “binds”.
Same read-out and setting: the entry for B13 is “binds”; for B14 it is “binds”.

The next experiment has as its target T4, human LTβR extracellular domain fused …. Briefly: phage ELISA. The method, then:
as §2, §3
Consider B5, for which the binding result was “binds”.
The same measure, in the same setting: then B15, with “binds”; and B16, with “binds”; and B17, with “binds”.
In the case of B6, the binding result is “binds”.
On the same count and under the same terms, the entry for B18 is “binds”; for B19 it is “binds”; for B20 it is “binds”.
With B21, the binding result is given as “binds”.
In the case of B7, the binding result is given as “binds”.
Same read-out and setting: the entry for B8 is “binds”; for B22 it is “binds”.
The same measure, in the same setting: the entry for B23 is “binds”; for B9 it is “binds”.
Regarding B10, the binding result is “binds”.
For the molecule B24, the binding result is reported as “binds”.
Same read-out and setting: the entry for B11 is “binds”.
Same read-out and setting: then B12, with “binds”; and B13, with “binds”.
On to B14, for which the binding result is recorded as “binds”.

The target in a further experiment is T2, human HVEM extracellular domain fused …. Briefly: phage ELISA. The method, then: as §2, §3
Consider B5, for which the binding result is listed as “no binding”.
Consider B15, for which the binding result is reported as “binds”.
For B16, the binding result is “binds”.
Consider B17, for which the binding result is “binds”.
The same measure, in the same setting: the entry for B6 is “binds”; for B18 it is “binds”.
The same measure, in the same setting: then B19, with “binds”; and B20, with “binds”.
For B21, the binding result is listed as “binds”.
Regarding B7, the binding result is “binds”.
As for B8, the binding result is listed as “binds”.
Still for that read-out and setting: then B22, with “binds”.
On the same count and under the same terms, the entry for B3 is “no binding”.
Turning to B23, the binding result is “binds”.
Turning to B9, the binding result is “binds”.
The same measure, in the same setting: then B4, with “no binding”; and B10, with “binds”.
Still for that read-out and setting: the entry for B24 is “binds”; for B11 it is “binds”; for B12 it is “no binding”.
For the molecule B13, the binding result was “no binding”.
Still for that read-out and setting: then B14, with “binds”.

In general, EC50 refers to the concentration that produces a half-maximal response.
